These results are taken from patent US20230250160A1 (HOBER BIOTECH, published 2023).

Read-outs that look alike come from different tables or passages of the source.

Test [1] concerns the target T1, Human Serum Albumin (human, UniProt P02768 25-609).
T1 construct: also called HSA
As to the kind of experiment: SPR Biacore T200, HSA on CM5 chip, ADAPT injected, 1:1 fit. The protocol: (§1) Sensor-based binding analysis was performed using a Biacore T200 system (GE Healthcare, Stockholm, Sweden). All analyses were conducted using CM-5 sensor chips coated with the target antigen, another irrelevant antigen and HSA. One surface was left as reference. Binding analysis was performed in PBS-T at 25° C. The ADAPT variants were diluted in PBS-T to 500 nM, 250 nM, 125 nM, 62.5 nM and 31.25 nM. The samples were injected at a flow rate of 30 ul/min for 120 s followed by injection of PBS-T for 240 s to monitor the dissociation. Surfaces were regenerated with 10 mM HCl. Kinetic parameters were determined using the Biacore Insight Evaluation software, assuming a 1:1 binding.

Test [2] concerns the target T1, Human Serum Albumin. The description is as above. The procedure: as §1
The source holds these as a separate data set.

Test [3] concerns the target T2, Human recombinant Insulin (human, UniProt P01308 25-54; P01308 90-110, limits assumed).
T2 construct: also called bInsulin
As to the kind of experiment: SPR Biacore T200, target on CM5 chip, ADAPT injected, 1:1 fit. The protocol: as §1
(§2) Variants with sufficient alpha helical structure as well as monomeric elution profiles on the SEC column were further analyzed for binding towards their target protein as well as to HSA. The binding towards the target antigen used in the selection was measured by a multi-cycle analysis using SPR, showing that several binders had affinities in the μM-pM range. […] After target binding had been established, the variants were also evaluated for their ability to simultaneously bind to HSA. This was done either through an SPR capture assay or an experiment where the ADAPT was pre-incubated with saturating conditions of HSA before the binding towards the target was analyzed. […] In total, thirteen of the characterized binders from the selections towards TNFα, PSA, ANG, MYDGF and Insulin could bind both HSA and its target antigen simultaneously. FIG. 5 contains sensorgrams for the thirteen variants in the capture assay.

Test [4] deals with T2, Human recombinant Insulin. The test is described as above. The procedure: as §1
This is another data set of the same source.

For a further test, the target named is T3, Her2 (UniProt P04626 23-652, limits assumed).
T3 construct: also called irrelevant target Her2
The test can be described thus: SPR (Biacore), ADAPT injected alone at 31.25-500 nM over immobilised Her2 (irrelevant target). The protocol: as §1
Variants with sufficient alpha helical structure as well as monomeric elution profiles on the SEC column were further analyzed for binding towards their target protein as well as to HSA. The binding towards the target antigen used in the selection was measured by a multi-cycle analysis using SPR, showing that several binders had affinities in the μM-pM range. […] After target binding had been established, the variants were also evaluated for their ability to simultaneously bind to HSA. This was done either through an SPR capture assay or an experiment where the ADAPT was pre-incubated with saturating conditions of HSA before the binding towards the target was analyzed. […]

The target in test [5] is T4, myeloid-derived growth factor (human (produced in the Human Secretome …, UniProt Q969H8 32-173, limits assumed)).
T4 construct: also called MYDGF; bMYDGF
T4 sequence (looked up): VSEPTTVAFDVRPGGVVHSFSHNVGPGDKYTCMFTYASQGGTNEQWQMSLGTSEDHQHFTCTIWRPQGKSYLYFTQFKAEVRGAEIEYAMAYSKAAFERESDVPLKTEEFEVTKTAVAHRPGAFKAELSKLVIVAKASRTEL
As to the kind of experiment: SPR Biacore T200, target on CM5 chip, ADAPT injected, 1:1 fit. The procedure:
as §1, §2

For test [6], the target named is T4, myeloid-derived growth factor. Described as above. The procedure:
as §1
The source holds these as a separate data set.

The target of test [7] is T5, angiogenin (human (produced in the Human Secretome …, UniProt P03950 25-147)).
T5 construct: also called bANG
T5 sequence (P03950 25-147 limits assumed): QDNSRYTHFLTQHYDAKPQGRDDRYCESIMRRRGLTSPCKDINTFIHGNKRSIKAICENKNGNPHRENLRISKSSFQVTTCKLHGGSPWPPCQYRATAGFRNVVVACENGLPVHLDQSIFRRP
The test is described as above. The protocol:
as §1, §2

Test [8] concerns the target T5, angiogenin. The description is as above. The protocol: as §1
The source holds these as a separate data set.

T2 sequence (P01308 25-54 limits assumed, chain 1 of 2): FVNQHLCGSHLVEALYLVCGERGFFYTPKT
T2 sequence (P01308 90-110 limits assumed, chain 2 of 2): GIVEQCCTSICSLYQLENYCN
T1 sequence (P02768 25-609 limits assumed): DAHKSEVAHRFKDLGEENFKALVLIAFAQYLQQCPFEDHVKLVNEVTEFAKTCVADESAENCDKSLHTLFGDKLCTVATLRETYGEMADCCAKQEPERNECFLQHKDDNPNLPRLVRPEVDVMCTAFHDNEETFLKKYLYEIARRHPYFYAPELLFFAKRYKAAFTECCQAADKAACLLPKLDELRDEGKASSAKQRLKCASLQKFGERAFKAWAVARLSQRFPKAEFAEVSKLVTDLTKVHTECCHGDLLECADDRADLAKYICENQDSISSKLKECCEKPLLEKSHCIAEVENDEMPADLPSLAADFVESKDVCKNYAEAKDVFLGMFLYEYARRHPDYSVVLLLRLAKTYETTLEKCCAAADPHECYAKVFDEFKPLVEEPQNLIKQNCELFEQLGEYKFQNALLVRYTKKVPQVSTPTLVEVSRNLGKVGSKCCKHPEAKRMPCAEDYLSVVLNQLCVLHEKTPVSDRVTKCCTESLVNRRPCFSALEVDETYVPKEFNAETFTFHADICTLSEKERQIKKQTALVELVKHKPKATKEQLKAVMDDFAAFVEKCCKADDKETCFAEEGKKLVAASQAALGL

Turning to LAIAKAYAQYELSFYGVSDFYRELIVKAKTVEGVEALKLHILAALP (designed binder, also called INS_02) [ADAPT variant Insulin_02], the Kd with Human Serum Albumin [1] was found to be 1.5 nM; with Human Serum Albumin [2], 1.5 nM; in test [3], 670 nM; in test [4], 670 nM. Besides, the off-rate (koff) stood at 0.00093 s⁻¹ with Human Serum Albumin [2] and 0.12 s⁻¹ in test [4]. For the same molecule, the on-rate (kon) with Human Serum Albumin [2] was determined as 640000 M⁻¹ s⁻¹; in test [4], 180000 M⁻¹ s⁻¹. In the test with Her2, the binding result was “no binding (tested: 500 nM)”.

As for LWWAKVWAVAELQKYGVSDFYFKLIDKAKTVEGVEALKLHILAALP (designed binder) [ADAPT variant MYDGF_07], the Kd in the test with Human Serum Albumin [1] turned out to be 4.7 nM; with Human Serum Albumin [2], 4.7 nM; in test [5], 230 nM; in test [6], 230 nM. Also, the off-rate (koff) in the test with Human Serum Albumin [2] came out at 0.00014 s⁻¹; in test [6], 0.082 s⁻¹. The kon with Human Serum Albumin [2] was 30000 M⁻¹ s⁻¹; in [6], 350000 M⁻¹ s⁻¹.

On to LWWAKVSAIKELQAYGVSDFYYMLITKAKTVEGVEALKLHILAALP (designed binder) [ADAPT variant MYDGF_08], for which the Kd in the test with Human Serum Albumin [1] came to 12 nM; with Human Serum Albumin [2], 12 nM; in test [5] it was 180 nM; in test [6], 180 nM. Further, the koff with Human Serum Albumin [2] came out at 0.00028 s⁻¹; in test [6], 0.18 s⁻¹. Further, the on-rate (kon) was determined as 23000 M⁻¹ s⁻¹ in the test with Human Serum Albumin [2] and 1e+06 M⁻¹ s⁻¹ in test [6].

For LWAAKDDADWELWQYGVSDFYRALIWKAKTVEGVEALKLHILAALP (designed binder, also called ANG_6) [ADAPT variant ANG_06], the Kd was determined as 1.1 nM in the test with Human Serum Albumin [1], 1.1 nM in the test with Human Serum Albumin [2], 4.9 nM with angiogenin [7] and 4.9 nM in the test with angiogenin [8]. Also, the koff with Human Serum Albumin [2] came to 2.6e-05 s⁻¹; with angiogenin [8], 0.00032 s⁻¹. The association rate constant (kon) with Human Serum Albumin [2] worked out at 24000 M⁻¹ s⁻¹; with angiogenin [8] it was 65000 M⁻¹ s⁻¹.

On to LHEAKDWADYELWSYGVSDFYRALIWKAKTVEGVEALKLHILAALP (designed binder) [ADAPT variant ANG_13], for which the dissociation constant Kd with Human Serum Albumin [1] was 2.8 nM; with Human Serum Albumin [2], 2.8 nM; in the test with angiogenin [7] it was 0.028 nM; in the test with angiogenin [8], 0.028 nM. Also, the off-rate (koff) with Human Serum Albumin [2] is 6.8e-05 s⁻¹; with angiogenin [8], 2.9e-06 s⁻¹. Moreover, the kon in the test with Human Serum Albumin [2] turned out to be 25000 M⁻¹ s⁻¹; in the test with angiogenin [8], 110000 M⁻¹ s⁻¹.
